This note sets out measurements from article PMC10402242.

The assay deals with nuclear transport factor 2 (NUTF2) (human (endogenous in MCF-7)) (UniProt P61970). The experiment in a line: native MS; native top-down proteomics: whole cell lysates of MCF-7 and MCF-7-EGFR (EGFR-overexpressing) cells fractionated by native SEC, concentrated with molecular weight cutoff filters, direct ESI infusion FAIMS-MSn with HCD, Orbitrap detection; endogenous assemblies.

Sequence of nuclear transport factor 2 (NUTF2) (P61970 whole entry): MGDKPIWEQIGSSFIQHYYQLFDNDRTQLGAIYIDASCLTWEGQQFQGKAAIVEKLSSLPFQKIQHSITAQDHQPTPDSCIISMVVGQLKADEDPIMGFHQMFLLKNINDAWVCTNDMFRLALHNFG

“nuclear transport factor 2 (NUTF2) (from UniProt P61970 1-127) (natural protein; monomeric proteoforms include acetylated, methylated and dimethylated forms (sites K4, K55, K63); monomeric proteoforms include acetylated, methylated and dimethylated forms (sites K4, K55, K63); other documents disagree on this pair)” displayed a stoichiometry N of 2.
